Test results: FireProtDB (doi:10.1021/bi0118052)
Where “and” joins values, the source holds several entries; their conditions need not be identical. Equal values may be shown once.

Conditions: Homo sapiens; pH 7.2; 25 °C; GdnHCl; CD; MOPS 10 mM; KCl 50 mM; reversible: yes; whole UniProt chain shown

B1: Protein S100-B wild type, P04271 (protein)
chain: MSELEKAMVALIDVFHQYSGREGDKHKLKKSELKELINNELSHFLEEIKEQEVVDKVMETLDNDGDGECDFQEFMAFVAMVTTACHEFFEHE
For B1, the “denaturant midpoint (higher = more stable)” value was 3.2 M and 4.6 M and the unfolding free energy was 17.3 kcal/mol.
